What was measured:
Type in all cases: cell-based, human
CYP3A4 [1] = test: CYP3A4 mRNA expression by RT-qPCR in spheroid-shaped FLC-4 cells (example, MICRO-SPACE); details: EGF 10 ng/mL, drug-free vs cytokine-free and drug-free; FIG. 20
Source text: (§1) A plurality of culture chambers 10a are formed on the bottom culture surface of each well 21a. Each culture chamber 10a includes culture rooms 11a each having the equivalent diameter D of 200 μm and the height H of 100 μm. The width W of each wall 12a is 10 μm.
(§2) As cells to be cultured, FLC-4 cells which are established hepatocyte cell lines […] were used.
As a culture medium, a DMEM/F 12 culture medium containing 10% fetal bovine serum (FBS) was used. A cell suspension was adjusted at a cell seeding density of 16×10^5 cells/mL.
The cells were cultured in a CO2 incubator for 10 to 11 days. The culture medium was replaced once every three days.
(§3) The total amount of old culture medium was removed from each well by using a pipette (culture medium removing process).
A test solution or a control solution was added to each well (test solution addition process).
The cells were incubated in a CO2 incubator for eight hours, 24 hours, or 48 hours at 37° C. (contact process). […]
The analysis was made using a total amount of 20 μL of reaction liquid containing 9.6 μL of EagleTaq Master Mix with ROX (Roche, Branchburg, N.J., USA), 0.96 μL of 20× Assays-on-Demand™ Gene Expression Assay Mix (Applied Biosystems), 7.1 μL of sterilized MiliQ water, and 1.8 μL of cDNA diluted by a factor of 5, and the reaction liquid was measured by Real-time PCR.

CYP3A4 [2] = test: Amount of CYP3A4 protein by western blotting in spheroid-shaped FLC-4 cells (example, MICRO-SPACE)
Source text: as §1, §2
(§4) Epidermal Growth Factor (EFG) was used as the cytokine.
(§5) DMEM/F12 (DMEM/E12 FBS(−)) containing no serum was used as a solvent for each test solution.
(§6) To study the cytokine concentrations of the second and third test solutions, test solutions respectively having EGF concentrations of 0.1 ng/mL, 1 ng/mL, and 10 ng/mL were prepared. Note that the cells were cultured in each test solution in advance to obtain a cell survival rate, and it was confirmed that the cell survival rate at these concentrations was 80% or more.
The total amount of old culture medium was removed from each well by using a pipette (culture medium removing process). […]
(§7) The cells corresponding to three to six wells were sonicated by a Lysis buffer containing 0.1% protease inhibitor cocktail and 1 mM PMSF (Phenylmethyl sulfonyl fluoride). […] ImmunoStar LD (Wako Pure Chemical Industries, Ltd.) was used as protein and was detected using LAS-1000 plus (Fujifilm, Tokyo).

CYP3A4 [3] = test: Amount of CYP3A4 protein by western blotting in FLC-4 cells on flat 24-well plate (comparative example, CONFLUENT)
Procedure: As the culture chamber, a commercially-available 24-well plate having a flat culture surface was used. The cell culture grade was used as the grade for the culture plate.
Except for the above-mentioned conditions, the comparative example was carried out under the same conditions as those for the example.
as §4, §5, §6, §3
Each test solution for studying the cytokine concentration was added to each well (test solution addition process). […]
as §7

FLC-4 cells = test: Cell survival rate of cells cultured in cytokine test solutions; details: EGF concentrations of 0.1, 1 and 10 ng/mL
Procedure: as §6

[4] = EGF 0, 0.1, 1, 10 ng/mL, western blotting

B1: Epidermal Growth Factor (protein, UniProt P01133 23-1207, looked up)
Pro-epidermal growth factor: PQHWSCPEGTLAGNGNSTCVGPAPFLIFSHGNSIFRIDTEGTNYEQLVVDAGVSVIMDFHYNEKRIYWVDLERQLLQRVFLNGSRQERVCNIEKNVSGMAINWINEEVIWSNQQEGIITVTDMKGNNSHILLSALKYPANVAVDPVERFIFWSSEVAGSLYRADLDGVGVKALLETSEKITAVSLDVLDKRLFWIQYNREGSNSLICSCDYDGGSVHISKHPTQHNLFAMSLFGDRIFYSTWKMKTIWIANKHTGKDMVRINLHSSFVPLGELKVVHPLAQPKAEDDTWEPEQKLCKLRKGNCSSTVCGQDLQSHLCMCAEGYALSRDRKYCEDVNECAFWNHGCTLGCKNTPGSYYCTCPVGFVLLPDGKRCHQLVSCPRNVSECSHDCVLTSEGPLCFCPEGSVLERDGKTCSGCSSPDNGGCSQLCVPLSPVSWECDCFPGYDLQLDEKSCAASGPQPFLLFANSQDIRHMHFDGTDYGTLLSQQMGMVYALDHDPVENKIYFAHTALKWIERANMDGSQRERLIEEGVDVPEGLAVDWIGRRFYWTDRGKSLIGRSDLNGKRSKIITKENISQPRGIAVHPMAKRLFWTDTGINPRIESSSLQGLGRLVIASSDLIWPSGITIDFLTDKLYWCDAKQSVIEMANLDGSKRRRLTQNDVGHPFAVAVFEDYVWFSDWAMPSVMRVNKRTGKDRVRLQGSMLKPSSLVVVHPLAKPGADPCLYQNGGCEHICKKRLGTAWCSCREGFMKASDGKTCLALDGHQLLAGGEVDLKNQVTPLDILSKTRVSEDNITESQHMLVAEIMVSDQDDCAPVGCSMYARCISEGEDATCQCLKGFAGDGKLCSDIDECEMGVPVCPPASSKCINTEGGYVCRCSEGYQGDGIHCLDIDECQLGEHSCGENASCTNTEGGYTCMCAGRLSEPGLICPDSTPPPHLREDDHHYSVRNSDSECPLSHDGYCLHDGVCMYIEALDKYACNCVVGYIGERCQYRDLKWWELRHAGHGQQQKVIVVAVCVVVLVMLLLLSLWGAHYYRTQKLLSKNPKNPYEESSRDVRSRRPADTEDGMSSCPQPWFVVIKEHQDLKNGGQPVAGEDGQAADGSMQPTSWRQEPQLCGMGTEQGCWIPVSSDKGSCPQVMERSFHMPSYGTQTLEGGVEKPHSLLSANPLWQQRALDPPHQMELTQ
modifications: Pro-epidermal growth factor
notes: Epidermal Growth Factor used as the cytokine
value of the metabolic function of CYP3A4 (mRNA expression level), second test solution versus first test solution (CYP3A4 [1]): lower | function of CYP3A4 (amount of CYP3A4 protein, bands), concentration dependency (CYP3A4 [2]; [4]): decreases depending on the concentration | amount of CYP3A4 protein, second test solution versus first test solution (CYP3A4 [2]; EGF 10 ng/mL (M10) vs 0 ng/mL (M0), FIG. 19): M0 is greater than M10 | function of CYP3A4 (amount of CYP3A4 protein, bands), concentration dependency (CYP3A4 [3]; [4]): the concentration dependency was not confirmed | amount of CYP3A4 protein, second test solution versus first test solution (CYP3A4 [3]; EGF 10 ng/mL (C10) vs 0 ng/mL (C0), FIG. 19): C0 and C10 are nearly equal | cell survival rate (FLC-4 cells): ≥ 80%

Source: patent US10677783B2, “Method for evaluating effect of cytokine on metabolic activity of cytochrome P450, and drug screening method” (Corning Incorporated, priority 2012, dated 2020)
